Our source for the Kd values is article PMC7998035.

Holding throughout (test): ELISA; ECM protein coated on the plate (100 nM in PBS, 1 h, 37 °C), blocked with 1% BSA in PBS-T; IL-1Ra or PDGF-BB variants at 0 to 100 nM in PBS-T with 0.1% BSA, 1 h, room temperature; bound protein detected with biotinylated antibodies (DuoSet); specific binding fitted with a one site-specific binding model; means of 3 independent experiments
For assay [1], the target named is human vitronectin (human) (UniProt P04004).
The target in assay [2] is human tenascin C (human) (UniProt P24821).
Assay [3] concerns the target human plasma fibronectin (human).

Chain of human tenascin C (human) (P24821 23-2201): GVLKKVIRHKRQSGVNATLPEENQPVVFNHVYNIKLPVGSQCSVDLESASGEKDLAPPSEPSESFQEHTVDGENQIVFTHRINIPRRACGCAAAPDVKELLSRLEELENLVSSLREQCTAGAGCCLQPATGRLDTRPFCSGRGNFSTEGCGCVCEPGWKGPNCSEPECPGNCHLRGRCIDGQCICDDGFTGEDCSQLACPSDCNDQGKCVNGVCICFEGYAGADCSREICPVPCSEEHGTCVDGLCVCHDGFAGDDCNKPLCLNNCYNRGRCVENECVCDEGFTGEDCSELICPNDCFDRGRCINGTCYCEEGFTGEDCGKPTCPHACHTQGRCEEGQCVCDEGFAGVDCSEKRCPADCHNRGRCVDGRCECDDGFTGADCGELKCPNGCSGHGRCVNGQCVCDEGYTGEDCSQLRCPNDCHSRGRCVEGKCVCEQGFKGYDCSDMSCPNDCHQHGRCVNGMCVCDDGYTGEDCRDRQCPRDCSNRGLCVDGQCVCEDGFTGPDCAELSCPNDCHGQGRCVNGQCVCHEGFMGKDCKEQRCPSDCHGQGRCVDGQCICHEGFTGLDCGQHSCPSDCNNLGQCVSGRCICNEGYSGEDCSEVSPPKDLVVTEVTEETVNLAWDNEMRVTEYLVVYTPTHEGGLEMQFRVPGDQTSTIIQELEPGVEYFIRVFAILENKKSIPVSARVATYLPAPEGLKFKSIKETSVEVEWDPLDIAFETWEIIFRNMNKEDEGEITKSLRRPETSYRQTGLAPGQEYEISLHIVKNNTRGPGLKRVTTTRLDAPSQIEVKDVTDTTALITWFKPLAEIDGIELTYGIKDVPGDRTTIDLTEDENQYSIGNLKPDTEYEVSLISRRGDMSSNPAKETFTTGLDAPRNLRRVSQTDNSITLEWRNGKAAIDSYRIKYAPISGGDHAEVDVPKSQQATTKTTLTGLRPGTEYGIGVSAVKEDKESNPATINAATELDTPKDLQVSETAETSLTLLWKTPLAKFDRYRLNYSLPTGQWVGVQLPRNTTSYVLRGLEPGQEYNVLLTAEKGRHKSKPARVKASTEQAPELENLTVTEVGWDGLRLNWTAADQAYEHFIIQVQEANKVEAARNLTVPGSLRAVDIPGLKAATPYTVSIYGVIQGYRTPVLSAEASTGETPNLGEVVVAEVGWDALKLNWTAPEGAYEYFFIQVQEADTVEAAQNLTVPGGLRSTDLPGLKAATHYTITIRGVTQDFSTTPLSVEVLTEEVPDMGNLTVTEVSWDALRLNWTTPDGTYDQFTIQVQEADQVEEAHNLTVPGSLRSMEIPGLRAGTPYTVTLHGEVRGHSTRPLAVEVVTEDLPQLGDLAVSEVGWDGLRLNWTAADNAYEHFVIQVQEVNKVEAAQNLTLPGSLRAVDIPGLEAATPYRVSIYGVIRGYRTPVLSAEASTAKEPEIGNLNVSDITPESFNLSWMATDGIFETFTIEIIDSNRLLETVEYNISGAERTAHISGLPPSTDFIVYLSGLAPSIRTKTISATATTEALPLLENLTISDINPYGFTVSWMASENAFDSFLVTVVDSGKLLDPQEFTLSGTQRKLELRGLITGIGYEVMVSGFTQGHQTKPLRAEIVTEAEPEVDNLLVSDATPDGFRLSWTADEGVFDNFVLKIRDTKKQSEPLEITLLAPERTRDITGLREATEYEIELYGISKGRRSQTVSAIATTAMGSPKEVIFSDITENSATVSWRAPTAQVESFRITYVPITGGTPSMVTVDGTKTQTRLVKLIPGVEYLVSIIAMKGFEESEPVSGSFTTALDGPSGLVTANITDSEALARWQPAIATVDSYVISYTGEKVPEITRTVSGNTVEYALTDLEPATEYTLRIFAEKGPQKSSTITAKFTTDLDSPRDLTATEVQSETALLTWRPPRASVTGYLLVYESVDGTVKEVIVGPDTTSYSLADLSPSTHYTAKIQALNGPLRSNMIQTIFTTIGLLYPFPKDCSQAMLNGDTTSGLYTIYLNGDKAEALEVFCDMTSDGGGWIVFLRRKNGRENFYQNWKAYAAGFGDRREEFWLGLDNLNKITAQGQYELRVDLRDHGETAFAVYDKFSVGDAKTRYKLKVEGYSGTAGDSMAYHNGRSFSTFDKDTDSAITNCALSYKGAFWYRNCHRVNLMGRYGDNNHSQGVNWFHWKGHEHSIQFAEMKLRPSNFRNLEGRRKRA
Chain of human vitronectin (human) (P04004 20-478): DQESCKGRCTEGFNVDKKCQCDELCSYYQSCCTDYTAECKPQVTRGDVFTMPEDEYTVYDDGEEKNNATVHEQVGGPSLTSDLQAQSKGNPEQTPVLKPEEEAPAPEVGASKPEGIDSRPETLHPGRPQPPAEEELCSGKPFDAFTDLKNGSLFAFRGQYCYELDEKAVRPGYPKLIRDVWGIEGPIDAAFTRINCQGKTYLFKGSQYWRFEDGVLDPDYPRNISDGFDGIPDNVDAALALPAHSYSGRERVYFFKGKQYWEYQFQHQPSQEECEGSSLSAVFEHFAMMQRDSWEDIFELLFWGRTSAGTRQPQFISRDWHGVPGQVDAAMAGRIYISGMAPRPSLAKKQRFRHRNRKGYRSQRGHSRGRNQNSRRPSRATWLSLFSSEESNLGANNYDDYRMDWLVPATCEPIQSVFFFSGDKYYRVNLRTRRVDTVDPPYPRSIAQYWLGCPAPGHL
Chain of human plasma fibronectin (human) (P02751 other isoform, or with tags, fused parts or gaps): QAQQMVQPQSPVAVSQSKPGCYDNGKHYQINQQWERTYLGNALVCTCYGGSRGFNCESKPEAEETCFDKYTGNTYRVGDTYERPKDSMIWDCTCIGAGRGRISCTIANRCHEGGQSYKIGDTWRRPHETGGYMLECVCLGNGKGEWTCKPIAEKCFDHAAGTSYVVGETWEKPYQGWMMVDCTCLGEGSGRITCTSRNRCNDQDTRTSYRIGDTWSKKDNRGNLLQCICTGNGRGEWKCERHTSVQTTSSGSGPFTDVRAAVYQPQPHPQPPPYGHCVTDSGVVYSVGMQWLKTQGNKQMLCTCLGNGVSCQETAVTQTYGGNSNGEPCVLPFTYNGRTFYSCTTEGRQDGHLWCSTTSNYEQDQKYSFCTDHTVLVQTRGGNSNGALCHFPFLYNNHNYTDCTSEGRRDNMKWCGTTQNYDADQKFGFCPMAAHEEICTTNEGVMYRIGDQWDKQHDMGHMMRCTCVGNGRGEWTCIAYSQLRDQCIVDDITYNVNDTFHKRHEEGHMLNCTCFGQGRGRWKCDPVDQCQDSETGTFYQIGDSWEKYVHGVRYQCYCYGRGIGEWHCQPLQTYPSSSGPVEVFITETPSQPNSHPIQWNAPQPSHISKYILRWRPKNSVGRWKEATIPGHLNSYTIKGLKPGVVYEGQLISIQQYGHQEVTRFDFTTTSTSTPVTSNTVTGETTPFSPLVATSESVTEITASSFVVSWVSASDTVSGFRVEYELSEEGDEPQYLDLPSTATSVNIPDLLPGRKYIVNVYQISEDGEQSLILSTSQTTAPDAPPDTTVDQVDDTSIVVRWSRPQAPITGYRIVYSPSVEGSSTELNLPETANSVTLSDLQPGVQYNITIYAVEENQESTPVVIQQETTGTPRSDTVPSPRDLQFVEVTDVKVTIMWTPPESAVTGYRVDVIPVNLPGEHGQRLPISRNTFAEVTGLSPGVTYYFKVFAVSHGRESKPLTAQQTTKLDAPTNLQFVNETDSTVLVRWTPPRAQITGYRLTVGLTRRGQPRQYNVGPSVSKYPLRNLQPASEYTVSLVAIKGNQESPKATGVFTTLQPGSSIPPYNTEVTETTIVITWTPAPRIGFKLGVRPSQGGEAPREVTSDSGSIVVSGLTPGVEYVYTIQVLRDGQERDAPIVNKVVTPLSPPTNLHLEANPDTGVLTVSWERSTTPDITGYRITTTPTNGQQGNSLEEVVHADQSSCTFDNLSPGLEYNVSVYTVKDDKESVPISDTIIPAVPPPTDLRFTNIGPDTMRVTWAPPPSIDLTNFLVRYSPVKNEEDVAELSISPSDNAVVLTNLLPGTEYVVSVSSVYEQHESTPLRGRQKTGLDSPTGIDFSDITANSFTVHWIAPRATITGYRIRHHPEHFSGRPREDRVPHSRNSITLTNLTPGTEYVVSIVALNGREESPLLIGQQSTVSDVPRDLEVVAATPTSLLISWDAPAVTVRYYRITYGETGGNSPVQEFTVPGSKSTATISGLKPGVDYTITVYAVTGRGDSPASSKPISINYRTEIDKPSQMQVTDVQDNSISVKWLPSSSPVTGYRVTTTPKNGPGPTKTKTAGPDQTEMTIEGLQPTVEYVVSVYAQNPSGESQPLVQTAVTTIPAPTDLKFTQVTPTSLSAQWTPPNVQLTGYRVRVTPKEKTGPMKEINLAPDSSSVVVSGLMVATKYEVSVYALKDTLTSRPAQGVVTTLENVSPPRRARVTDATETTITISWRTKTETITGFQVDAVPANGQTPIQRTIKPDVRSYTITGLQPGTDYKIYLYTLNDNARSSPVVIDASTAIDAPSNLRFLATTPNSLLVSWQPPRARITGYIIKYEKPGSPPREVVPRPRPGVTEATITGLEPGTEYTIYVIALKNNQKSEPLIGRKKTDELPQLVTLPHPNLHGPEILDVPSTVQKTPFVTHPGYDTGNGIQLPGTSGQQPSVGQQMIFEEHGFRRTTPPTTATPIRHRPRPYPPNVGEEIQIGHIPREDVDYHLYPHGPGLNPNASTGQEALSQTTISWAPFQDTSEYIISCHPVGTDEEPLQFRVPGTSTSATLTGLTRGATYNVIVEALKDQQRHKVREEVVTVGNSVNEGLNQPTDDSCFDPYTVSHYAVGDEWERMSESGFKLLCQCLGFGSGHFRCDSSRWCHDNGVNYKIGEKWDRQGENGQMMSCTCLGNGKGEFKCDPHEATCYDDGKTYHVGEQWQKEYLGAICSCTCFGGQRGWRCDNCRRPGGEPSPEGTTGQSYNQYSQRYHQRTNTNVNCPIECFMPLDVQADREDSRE

By Kd is commonly meant the concentration at which binding is half-saturated. Take IL-1Ra/PlGF123-141: the dissociation constant Kd was found to be 0.7 nM in assay [1] and 20.3 nM in assay [2]. As for “IL-1Ra/PlGF123-141 (other; other documents disagree on this pair)”, in assay [3], the Kd is 21.9 nM.

PDGF-BB/PlGF123-141: the equilibrium dissociation constant (Kd) came out at 1.4 nM in assay [1] and 25 nM in assay [2]. With “PDGF-BB/PlGF123-141 (other; other documents disagree on this pair)”, the dissociation constant (Kd) in assay [3] was found to be 17.7 nM. In other words, the double-digit nanomolar range.
